Measured values reported in patent US20110300138A1 (published 2011).

Columns and labels:
Test in all cases: cell-based or functional assay
[1] = target: wild type TSHR (human TSH receptor) expressed in CHO cells (human) (UniProt P16473)
[2] = target: wild type human TSHR (full length) expressed in CHO cells (human) (UniProt P16473)
[3] = target: TSHR with Tyr206 mutated to Ala (human) (UniProt P16473)
[4] = target: wild type TSHR (human) (UniProt P16473)

Question: What does the source list for TSH (ligand)?
Answer: Cyclic AMP produced (pmol/mL), TSH 0.01 ng/mL, Experiment 2 [1]: 2.49 pmol/mL; Cyclic AMP produced (pmol/mL), TSH 0.03 ng/mL [1]: 4.78 pmol/mL; Cyclic AMP produced (pmol/mL), TSH 0.03 ng/mL, Experiment 1 [1]: 3.32 pmol/mL; Cyclic AMP produced (pmol/mL), TSH 0.03 ng/mL, Experiment 2 [1]: 5.12 pmol/mL; Cyclic AMP produced (pmol/mL), TSH 0.1 ng/mL [1]: 16.2 pmol/mL; Cyclic AMP produced (pmol/mL), TSH 0.1 ng/mL, Experiment 1 [1]: 14.6 pmol/mL; Cyclic AMP produced (pmol/mL), TSH 0.1 ng/mL, Experiment 2 [1]: 13.7 pmol/mL; Cyclic AMP produced (pmol/mL), TSH 0.3 ng/mL [1]: 44.3 pmol/mL; Cyclic AMP produced (pmol/mL), TSH 0.3 ng/mL, Experiment 1 [1]: 48.5 pmol/mL; Cyclic AMP produced (pmol/mL), TSH 0.3 ng/mL, Experiment 2 [1]: 39.9 pmol/mL; Cyclic AMP produced (pmol/mL), TSH 1 ng/mL [1]: 77.2 pmol/mL; Cyclic AMP produced (pmol/mL), TSH 1 ng/mL, Experiment 1 [1]: 91.2 pmol/mL; Cyclic AMP produced (pmol/mL), TSH 1 ng/mL, Experiment 2 [1]: 74.3 pmol/mL; Cyclic AMP produced (pmol/mL), TSH 3 ng/mL [1]: 95.5 pmol/mL; Cyclic AMP produced (pmol/mL), TSH 3 ng/mL, Experiment 1 [1]: 119 pmol/mL; Cyclic AMP produced (pmol/mL), TSH 3 ng/mL, Experiment 2 [1]: 88.3 pmol/mL; Cyclic AMP produced (pmol/mL), wild type TSHR, TSH 0.01 ng/mL [1]: 2.48 pmol/mL; Cyclic AMP produced (pmol/mL), wild type TSHR, TSH 0.01 ng/mL, Experiment 1 [1]: 2.6 pmol/mL; Cyclic AMP produced (pmol/mL), wild type TSHR, TSH 0.01 ng/mL, Experiment 2 [1]: 3.89 pmol/mL; Cyclic AMP produced (pmol/mL), wild type TSHR, TSH 0.03 ng/mL [1]: 4.62 pmol/mL; Cyclic AMP produced (pmol/mL), wild type TSHR, TSH 0.03 ng/mL, Experiment 1 [1]: 4.27 pmol/mL; Cyclic AMP produced (pmol/mL), wild type TSHR, TSH 0.03 ng/mL, Experiment 2 [1]: 5.52 pmol/mL; Cyclic AMP produced (pmol/mL), wild type TSHR, TSH 0.1 ng/mL [1]: 17.6 pmol/mL; Cyclic AMP produced (pmol/mL), wild type TSHR, TSH 0.1 ng/mL, Experiment 1 [1]: 10.9 pmol/mL; Cyclic AMP produced (pmol/mL), wild type TSHR, TSH 0.1 ng/mL, Experiment 2 [1]: 13.3 pmol/mL; Cyclic AMP produced (pmol/mL), wild type TSHR, TSH 0.3 ng/mL [1]: 40.4 pmol/mL; Cyclic AMP produced (pmol/mL), wild type TSHR, TSH 0.3 ng/mL, Experiment 1 [1]: 32.3 pmol/mL; Cyclic AMP produced (pmol/mL), wild type TSHR, TSH 0.3 ng/mL, Experiment 2 [1]: 35.4 pmol/mL; Cyclic AMP produced (pmol/mL), wild type TSHR, TSH 1 ng/mL [1]: 92.5 pmol/mL; Cyclic AMP produced (pmol/mL), wild type TSHR, TSH 1 ng/mL, Experiment 1 [1]: 85 pmol/mL; Cyclic AMP produced (pmol/mL), wild type TSHR, TSH 1 ng/mL, Experiment 2 [1]: 82.1 pmol/mL; Cyclic AMP produced (pmol/mL), wild type TSHR, TSH 3 ng/mL [1]: 104 pmol/mL; Cyclic AMP produced (pmol/mL), wild type TSHR, TSH 3 ng/mL, Experiment 1 [1]: 124 pmol/mL; Cyclic AMP produced (pmol/mL), wild type TSHR, TSH 3 ng/mL, Experiment 2 [1]: 91.7 pmol/mL; Cyclic AMP produced, wild type TSHR, TSH 0.01 ng/mL [1]: 1.41 pmol/mL; Cyclic AMP produced, wild type TSHR, TSH 0.03 ng/mL [1]: 1.99 pmol/mL; Cyclic AMP produced, wild type TSHR, TSH 0.1 ng/mL [1]: 5.54 pmol/mL; Cyclic AMP produced, wild type TSHR, TSH 0.3 ng/mL [1]: 16.3 pmol/mL; Cyclic AMP produced, wild type TSHR, TSH 1 ng/mL [1]: 44.2 pmol/mL; Cyclic AMP produced, wild type TSHR, TSH 3 ng/mL [1]: 53.9 pmol/mL; % inhibition of TSH stimulation, TSH (2) run at the end of assay, wild type TSHR [2]: 2%; Cyclic AMP produced (pmol/mL), TSH 0.01 ng/mL, wild type TSHR [2]: 2.03 pmol/mL; Cyclic AMP produced (pmol/mL), TSH 0.03 ng/mL, wild type TSHR [2]: 3.65 pmol/mL; Cyclic AMP produced (pmol/mL), TSH 0.1 ng/mL, wild type TSHR [2]: 9.65 pmol/mL; Cyclic AMP produced (pmol/mL), TSH 0.3 ng/mL, wild type TSHR [2]: 31.4 pmol/mL; Cyclic AMP produced (pmol/mL), TSH 1 ng/mL, wild type TSHR [2]: 61 pmol/mL; Cyclic AMP produced (pmol/mL), TSH 3 ng/mL alone, wild type TSHR [2]: 93.9 pmol/mL; Cyclic AMP produced (pmol/mL), TSH 3 ng/mL, wild type TSHR [2]: 82.6 pmol/mL; Cyclic AMP produced (pmol/mL), TSH (2) 3 ng/mL run at the end of assay, wild type TSHR [2]: 92.2 pmol/mL; Cyclic AMP produced, TSH 0.01 ng/mL [2]: 4 pmol/mL; Cyclic AMP produced, TSH 0.01 ng/mL, Experiment 1 [2]: 1.09 pmol/mL; Cyclic AMP produced, TSH 0.01 ng/mL, Experiment 2 [2]: 1.93 pmol/mL; Cyclic AMP produced, TSH 0.03 ng/mL [2]: 6.66 pmol/mL; Cyclic AMP produced, TSH 0.03 ng/mL, Experiment 1 [2]: 2.31 pmol/mL; Cyclic AMP produced, TSH 0.03 ng/mL, Experiment 2 [2]: 2.75 pmol/mL; Cyclic AMP produced, TSH 0.1 ng/mL [2]: 19.7 pmol/mL; Cyclic AMP produced, TSH 0.1 ng/mL, Experiment 1 [2]: 6.54 pmol/mL; Cyclic AMP produced, TSH 0.1 ng/mL, Experiment 2 [2]: 7.25 pmol/mL; Cyclic AMP produced, TSH 0.3 ng/mL [2]: 45 pmol/mL; Cyclic AMP produced, TSH 0.3 ng/mL, Experiment 1 [2]: 26.5 pmol/mL; Cyclic AMP produced, TSH 0.3 ng/mL, Experiment 2 [2]: 25.3 pmol/mL; Cyclic AMP produced, TSH 1 ng/mL [2]: 75.7 pmol/mL; Cyclic AMP produced, TSH 1 ng/mL, Experiment 1 [2]: 67.7 pmol/mL; Cyclic AMP produced, TSH 1 ng/mL, Experiment 2 [2]: 51 pmol/mL; Cyclic AMP produced, TSH 3 ng/mL, Experiment 1 (mean of duplicate) [2]: 83.5 pmol/mL; Cyclic AMP produced; TSH 3 ng/mL [2]: 87.2 pmol/mL; Cyclic AMP produced; TSH 3 ng/mL; Experiment 2 [2]: 69.7 pmol/mL; % inhibition of TSH stimulation, TSH (2) run at the end of assay, mutated TSHR [3]: 16%; Cyclic AMP produced (pmol/mL), TSH 3 ng/mL, mutated TSHR [3]: 82.9 pmol/mL; Cyclic AMP produced (pmol/mL), TSH (2) 3 ng/mL run at the end of assay, mutated TSHR [3]: 69.5 pmol/mL; Mutated/wild type (%) of cyclic AMP produced; TSH 3 ng/mL [3]: 90%; Mutated/wild type (%) of cyclic AMP produced; TSH (2) 3 ng/mL, run at the end of assay [3]: 64%; Cyclic AMP produced (pmol/mL), TSH 3 ng/mL, wild type TSHR [4]: 92.2 pmol/mL; Cyclic AMP produced (pmol/mL), TSH (2) 3 ng/mL run at the end of assay, wild type TSHR [4]: 108 pmol/mL
